The text below walks through data of the supplement of paper PMC10567573.

First the molecules themselves.
B1: PRPH (parent)
chain: DEIEFLKKLHEEELRDLQVSVESQ
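Also: lentivirally expressed fusions sorted by FACS into six bins by GFP to DsRed ratio, PSI derived from sequencing read proportions per bin multiplied by bin number.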

The series covers variants of B1. Nature of the series: protein stability index of a GFP-peptide fusion (GPS, HEK-293T) (PSI 1-6); higher = more stable. Particulars: c terminus: a fixed tail appended.
As for DEIEALKKLHEEELRDLQVSVESQ, the protein stability index is 4.69.

Turning to DEIESLKKLHEEELRDLQVSVESQ, the protein stability index is 5.07. The result for DEIECLKKLHEEELRDLQVSVESQ reads 5.15; that for DEIERLKKLHEEELRDLQVSVESQ, 4.79. The result for DEIELLKKLHEEELRDLQVSVESQ reads 5.18; that for DEIEGLKKLHEEELRDLQVSVESQ, 5.36. Next, DEIEYLKKLHEEELRDLQVSVESQ: 4.58; DEIEVLKKLHEEELRDLQVSVESQ: 4.95; DEIETLKKLHEEELRDLQVSVESQ: 5.1. In the case of DEIEWLKKLHEEELRDLQVSVESQ, the protein stability index was determined as 4.42.

For DEIMFLKKLHEEELRDLQVSVESQ, the protein stability index was 4.53. Next, DEICFLKKLHEEELRDLQVSVESQ: 3.93. Next, DEIIFLKKLHEEELRDLQVSVESQ: 4.12; DEIHFLKKLHEEELRDLQVSVESQ: 4.55.

Take DEIVFLKKLHEEELRDLQVSVESQ: the protein stability index was 4.21.

DEIGFLKKLHEEELRDLQVSVESQ: the protein stability index was 4.57.

As to DEIWFLKKLHEEELRDLQVSVESQ, the protein stability index turned out to be 3.18. The result for DEIQFLKKLHEEELRDLQVSVESQ reads 4.34; that for DEINFLKKLHEEELRDLQVSVESQ, 4.91; that for DEIEFHKKLHEEELRDLQVSVESQ, 5.21. The result for DEIEFSKKLHEEELRDLQVSVESQ reads 5.12; that for DEIEFGKKLHEEELRDLQVSVESQ, 5.07; that for DEIEFYKKLHEEELRDLQVSVESQ, 4.72. Next, DEIEFKKKLHEEELRDLQVSVESQ: 4.99. As to DEIEFNKKLHEEELRDLQVSVESQ, the protein stability index was 5.61. On to DEIEFRKKLHEEELRDLQVSVESQ, for which the protein stability index came out at 4.91.

Take DEIEFLKKLHEEELRDTQVSVESQ: the protein stability index was 5.06. The result for DEIEFLKKLHEEELRDFQVSVESQ reads 4.69; that for DEIEFLKKLHEEELRDHQVSVESQ, 4.6; that for DEIEFLKKLHEEELRDCQVSVESQ, 4.92. The result for DEIEFLKKLHEEELRDSQVSVESQ reads 4.9.

Consider DEIEFLKKLHEEELNDLQVSVESQ, for which the protein stability index came to 4.91. Turning to DEIEFLKKLHEEELMDLQVSVESQ, the protein stability index was found to be 4.58.

With DEIEFLKKLHEEELWDLQVSVESQ, the protein stability index was found to be 3.91.

In the case of DEIEFLKKLHEEELKDLQVSVESQ, the protein stability index was found to be 4.59.

DEIEFLKKLHEEELGDLQVSVESQ: the protein stability index stood at 4.28. As for DEIEFLKKLHEEELADLQVSVESQ, the protein stability index was 5.18. Next, DEIEFLKKLHEEELEDLQVSVESQ: 4.83; DEIEFLKKLHEEELSDLQVSVESQ: 4.8. On to LEIEFLKKLHEEELRDLQVSVESQ, for which the protein stability index is 4.63.

As for SEIEFLKKLHEEELRDLQVSVESQ, the protein stability index is 4.64. The result for VEIEFLKKLHEEELRDLQVSVESQ reads 4.31; that for CEIEFLKKLHEEELRDLQVSVESQ, 3.41; that for IEIEFLKKLHEEELRDLQVSVESQ, 3.46.

For the variant HEIEFLKKLHEEELRDLQVSVESQ, the protein stability index came to 4.99.

Take GEIEFLKKLHEEELRDLQVSVESQ: the protein stability index amounted to 4.53.

Consider PEIEFLKKLHEEELRDLQVSVESQ, for which the protein stability index was 4.53. The result for FEIEFLKKLHEEELRDLQVSVESQ reads 4.07. On to DEIEFLKKLHEEELRDLQVSAESQ, for which the protein stability index stood at 5.45.

Take DEIEFLKKLHEEELRDLQVSLESQ: the protein stability index was 4.71.

For DEIEFLKKLHEEELRDLQVSFESQ, the protein stability index turned out to be 4.43. With DEIEFLKKLHEEELRDLQVSSESQ, the protein stability index was determined as 4.75. Regarding DEIEFLKKLHEEELRDLQVSDESQ, the protein stability index is 5.43. The result for DEIEFLKKLHEEELRDLQVSTESQ reads 4.96. The result for DEIEFLKKLHEEELRDLQVSCESQ reads 4.98; that for DEIEFLKKLHEEELRDLQVSYESQ, 4.07. Next, DEIEFLKKLHEEELRDLQVSIESQ: 4.13; DEIEFLKKLHEEELRDLPVSVESQ: 5.3; DEIEFLKKLHEEELRDLCVSVESQ: 4.86. In the case of DEIEFLKKLHEEELRDLTVSVESQ, the protein stability index is 5.36. The result for DEIEFLKKLHEEELRDLRVSVESQ reads 4.62; that for DEIEFLKKLHEEELRDLFVSVESQ, 3.36. As to DEIEFLKKLHEEELRDLMVSVESQ, the protein stability index was determined as 4.37. As to DEIEFLKKLHEEELRDLKVSVESQ, the protein stability index was determined as 4.63.

Turning to DEIEFLKKLHEENLRDLQVSVESQ, the protein stability index was 4.97. Next, DEIEFLKKLHEETLRDLQVSVESQ: 4.05; DEIEFLKKLHEESLRDLQVSVESQ: 4.16. Take DEIEFLKKLHEEFLRDLQVSVESQ: the protein stability index is 2.85. Regarding DEIEFLKKLHEELLRDLQVSVESQ, the protein stability index amounted to 3.27.

As to DEIEFLKKLHEECLRDLQVSVESQ, the protein stability index was 3.59. Regarding DEIEFLKKLHEEDLRDLQVSVESQ, the protein stability index turned out to be 4.97.

For the variant DEIEFLKPLHEEELRDLQVSVESQ, the protein stability index came to 5.23.

Consider DEIEFLKFLHEEELRDLQVSVESQ, for which the protein stability index turned out to be 3.94. Next, DEIEFLKDLHEEELRDLQVSVESQ: 4.89. As to DEIEFLKLLHEEELRDLQVSVESQ, the protein stability index was 4.32. The result for DEIEFLKWLHEEELRDLQVSVESQ reads 3.45; that for DEIEFLKILHEEELRDLQVSVESQ, 4.35. The result for DEIEFLKQLHEEELRDLQVSVESQ reads 4.98; that for DEIEFLKHLHEEELRDLQVSVESQ, 4.63; that for DEIEFLKALHEEELRDLQVSVESQ, 5.1. Next, DEIEFLKKLHEEELRDLQVSVVSQ: 4.18. DEIEFLKKLHEEELRDLQVSVRSQ: the protein stability index was 4.3. As for DEIEFLKKLHEEELRDLQVSVSSQ, the protein stability index amounted to 4.74. With DEIEFLKKLHEEELRDLQVSVKSQ, the protein stability index was 4.69. With DEIEFLKKLHEEELRDLQVSVISQ, the protein stability index was found to be 3.29. In the case of DEIEFLKKLHEEELRDLQVSVQSQ, the protein stability index is 4.37. The result for DEAEFLKKLHEEELRDLQVSVESQ reads 5.36; that for DEFEFLKKLHEEELRDLQVSVESQ, 4.88.

In the case of DEMEFLKKLHEEELRDLQVSVESQ, the protein stability index amounted to 4.96. Next, DETEFLKKLHEEELRDLQVSVESQ: 5.25; DEVEFLKKLHEEELRDLQVSVESQ: 4.83. The result for DEIEFLKKLHIEELRDLQVSVESQ reads 4.01; that for DEIEFLKKLHWEELRDLQVSVESQ, 3.21; that for DEIEFLKKLHMEELRDLQVSVESQ, 3.99.
